Data on one substance can be found in publication PMC6607583.

For test [1], the target named is HIV-1 NL4-3 Nef-FTS Mut1 (WL-EEEE to AA-AAAA) (HIV-1 (NL4-3 strain)) (UniProt P03406). The test is described as follows: pull-down; HeLa cells transiently transfected with FTS-tagged bait, cross-linked with 1 mM DSP (4 °C, 6 h), lysed in 50 mM Tris-HCl pH 7.4, 300 mM NaCl, 5 mM EDTA, 0.5% NP-40; bait isolated on Strep-Tactin resin overnight at 4 °C; endogenous prey detected by immunoblotting. A general note: In western blotting, separated proteins are transferred to a membrane and probed.

Test [2] addresses HIV-1 NL4-3 Nef-FTS Mut2 (EEEE-PxxP to AAAA-AxxA) (HIV-1 (NL4-3 strain)) (UniProt P03406). Described as above.

With “autophagy-related 9A (ATG9A) protein, endogenous in HeLa (from UniProt Q7Z3C6 1-839) (natural protein)”, the Nef-ATG9A pulldown relative to WT Nef in test [1] and in test [2] was 10 % of WT Nef each time.
